test: soluble on expression in E. coli; label from the status in PepcDB or PDB records

Which “soluble on expression in E. coli” value does the source give for “MWSVTDSPLDDAIQEAKSAAQKAGFDTETFAAVQSKEGRTSFAFELEGLGSASSVSELEEAIEQIEGVDAKIVYPSAMAWISASRTLDPTLIVDAFQQHGVTATLTDSSLRRRLAWTDVEEGRYRRARARRFGSRVDEESRRFEIARREGFLHKRDETTRVVETTEVLFTARSLMTKAR” here?
Its value is “not soluble”.

For “MAKYFDIDDILIEEEFVPVLFHKTANGVTIDPSAETNCVSLLIPSAKAEQGSKVELPFWLAHELHLRQAVTINLPPCFDQKTRLEVQADAAYVDLRSRCPYFYEFGCKIEPLVTDRTLGILLSTAFKIRYKEALTKVYTAAHITASKYLSFLTKEETNLYEAAHLSMTAFKKWRTGGPRFQRASILGRKRKDSN”, which “soluble on expression in E. coli” value is on record?
Its value is “soluble”.

Which “soluble on expression in E. coli” value does the source give for “MSLDASDDSLIGRITEVRAGRFAARLLSDEEGFRNEVSLGDEVQHPGQVGTYVSIRNGTFRILALVREVSGGAAGSAAGSAMQLVPLGEFNDKGAFSRGVRRYPVPGAEVHAASPQEINAVFARTRNLRFNPGYLPNHPATGVYLDPSALCSRHFAILGQSGAGKSWTVASLLQRMLASAPRAHIILLDLHGEYCWRGADGVLHSTFPPMATRAMDARELEIPYWLMSFAELVDLLIERDDPAASIQTAFLRETVFELKRRSARELGLEGVSIDAPVYFSLQEVYERFKEANEHRTDFGKTKGPLFGQFDDFLLKLGSRLHDVRYDFLLNPARRTRSESLPDLLRDFVGLGEPRCQISVIDLSPVPFDVRPTVSAQIGRLAFEFNYWNLDRREFPILLVCEEAHTYIPRERATQYEGTRKSMERIAKEGRKYGVGLAVVSQRPHELSETVLSQCGSYICLRISNPDDQAYVRKLVPEGEADLVDVLTALGRGEALILGEATPLPVRCQIFRPDEGHHHHHH” here?
The value was “not soluble”.

Which “soluble on expression in E. coli” value does the source give for “MGIHFVDKADLWKSALLFNLKLRDRFRIAVDDHRGRATDLTAEEESALFRMLQTVAVPLIGNACHVFMNGFNRVQVYGLEKLHDALLNRPKNKPLVTVSNHVASVDDPFVIASLLPPKFLLDARNLRWTLCATDRCFKNPVTSAFSRSVKVLPISRGEGIYQQGMDIAISKLNNGGWVHIFPEGSRSRDGGKTMGSAKRGIGRLILDADTLPMVVPFVHTGMQDIMPVGASVPRIGKTVTVIIGDPIHFNDILSTEGAQHVSRKHLYDAVSSRIGQRLYDLKAQVDRVYIEQQSMMSHNAKTPSDRAAEIFHRVDWDSFGMGAQFSEESSPSSKPIGQSDDRIVRSPKRRVSPEGGVSLKIKKLMDSTEMMGFAARGLLMNEYKSRVESANVGRPLKAWREYFMNRGL” here?
The value was “soluble”.

Which “soluble on expression in E. coli” value does the source give for “MEHDLNDMMVFLAVVETGSFTLAADRLGMPKANVSRKVSRLEKNLAVTLLERSTRSQHLTEAGRRYLAHCKRIHEELDLATASVCELFHSYTGELKIGASVASGQQVLRPALGKFMRQYPDLKVQLNLVNRRVDFIEEGFDVVIRIGQLNDSMLIAKKLGAINRKIFASPSYLAKQGNPDKVEQLTEHQLLIMNPLNISGNKDLKLPLTSTDHETFTLDCQPRLLVDDFSMLKQAIVDGLGIGVLPDYMCRQEVASGQLVNILPDWGMAKVDIYALYPKHRAKIPKVKAFIDFVSELYGEVL” here?
The value was “not soluble”.

Which “soluble on expression in E. coli” value does the source give for “MPMNTTGMSFSSFGISCHRENSFRNSFRGKNDEVVKCSIGERTISFSVRKFSGNILETVRRQSTKDIDEWIKDERIVYPSRVINQEIDNYCFQKNAKISTEERQRVFFLVSQENQLTLDVKAAQSSINHVIMGSASFGKKMDALCDGMSRDVKNRTSDTIANLLADKFYQKHIDSDIDIVKLRNDIPDYLMRAIQG” here?
Its value is “not soluble”.

With “MRPDVAFALPALAGGGVERVYLDLAGAMVKEGLRVDFVLARAEGPLLAQLPQGVRLWDLGVPRRLPLLRAYTPLGVYLAQARPRVVLPDWDYLDWVPLQAAWRSRTPFLWVLHNAPAYLKDVPNPVKRHTALWAARQTLKRAVNHPLGRVGAVSRGVAQAFARFGGVPEERICVLPNPIHVDRVRRLSHENVPLPATPYFLALGRLHPQKGFSLLLEAFSIFAKHHPDVHLLILGEGPERPRLEKLAHTLGLTSRVAFLGFVVNPYPYLRGAKALVITSRYEGFSMVALEALALRVPVVAVESEGGLLEALGDGRFGIVTPRSPQALAHAMERVLSDGFAWDETALKDHLNQYSPEAALRSYMSVLEEIWR” as the sequence, how does the “soluble on expression in E. coli” value read?
Its value is “soluble”.

For “MLTCTVDTQFGRLTLREEAGALVSVSWGSAAREDASELLQRASLQVSEYDQGARQQFDLPVRIRGSAFQRAVCDAICAIPFGDTCTYGDIARALGVPAQAVGQACGANPIPIIIPCHRVMGAKGLTGFSGVGGVETKVALLRHEGAAGLLILEHHHHHH”, which “soluble on expression in E. coli” value is on record?
The value was “not soluble”.

For “MERPRFSNYYAVRVTGGQEINVALMIEERIKTNNIKEVYSIIVPPNVKGYVILEATGPHVVKLVSQGIRHVRGFAQGLVQKDDIIKFISKTTIAPAYKVGDMVEVTSGPFRGMQAQVVRIDSAKNEVVLNILESSFPLQVTVPIDQVKPVKK”, which “soluble on expression in E. coli” value is on record?
Its value is “soluble”.

With “MSLEITNPILTGFNPDPSLCRQGEDYYIATSTFEWFPGVRIYHSRDLKNWSLVSTPLDRVSMLDMKGNPDSGGIWAPCLSYADGKFWLLYTDVKIVDSPWKNGRNFLVTAPSIEGPWSEPIPMGNGGFDPSLFHDDDGRKYYIYRPWGPRHHSNPHNTIVLQAFDPQTGTLSPERKTLFTGTPLCYTEGAHLYRHAGWYYLMAAEGGTSYEHAVVVLRSKNIDGPYELHPDVTMMTSWHLPENPLQKSGHGSLLQTHTGEWYMAYLTSRPLRLPGVPLLASGGRGYCPLGRETGIARIEWRDGWPYVEGGKHAQLTVKGPQVAEQPAAVPGNWRDDFDASSLDPELQTLRIPFDDTLGSLTARPGFLRLYGNDSLNSTFTQSTVARRWQHFAFRAETRMEFSPVHFQQSAGLTCYYNSKNWSYCFVDYEEGQGRTIKVIQLDHNVPSWPLHEQPIPVPEHAESVWLRVDVDTLVYRYSYSFDGETWHTVPVTYEAWKLSDDYIGGRGFFTGAFVGLHCEDISGDGCYADFDYFTYEPVEGHHHHHH” as the sequence, how does the “soluble on expression in E. coli” value read?
The value was “not soluble”.

With “MSLGHPVDTFRRENKALRESAARLQKAMNGVLETADDGDASARLLEWRQALNELQDVDKHYQRKEHLLSTCLERHGITGPSKVMWGKDDQIRELLKDTSVALRQSDTSVAELKVLAATTGAAAAGAVHEMIYKEEQILLPICLERFTADEWAEIWASSPRYGWCLVEPRQGYKPFTSEAAGRASVDGGVSLPTGALALEQLIAIFSTLPVDLTFVDANDRVAFFSEGPSRVFARSRTIVGRMVQNCHPPRSVDVVERILSDFREGRQNVAEFWLQFVGRFVHIRYFAVRSEDGRYLGTLEVTQDVGPIRALEGERRLLEYAEPSEGHHHHHH” as the sequence, how does the “soluble on expression in E. coli” value read?
The value was “not soluble”.

Which “soluble on expression in E. coli” value does the source give for “MGSDKIHHHHHHMERKTDSIDLAPLFHPDTIRLSRLAERLDDGPYHGGRIDPLALVITQREEATGQAGIDRYPMLQLAVGRAGMQVGQVDLGQLHPPVRSYLECRFHILKIVNLRHISIISRRNNSPEITLSHPKRQSPHALPYLCINIKKQHIMIRYKKYQNKNEKNVTTFNKWYARAVCEETVDIAALAEHMSTHNTPFSTGAIHGMLKDMVNCIKELLMDGKNVKIDDLGIFSVGIRSKGAVTPEDFSTQGNIIGVRLRARATGNLSSASLKLTAKLREYTEYSNGEVTPGGGGGDSESPDEI” here?
Its value is “not soluble”.

Which “soluble on expression in E. coli” value does the source give for “MSLDNIERTLGQLFEGRDFEKEYQGLKQQVLHYQPIQDFFKEHKEEVTEQLVNQNLSNLYEFMTQHKKFTEQEETLMPGYAPKLVLNGEFITVTYYPTKEKIEEDKRRAVERRIRSLYMPKQVVDANLADFYTDEESRQLALVEAYQFLNNYPPKSGERVKGLFIHGSFGTGKSYLLGALAKELALKGISSTLVYLPEFMREVKQSISDNTVGEKIQFAKETEVLMLDDIGAESMTAWTRDEVLGAILQFRMQEELPTFFSSNYNMDQLENHLMFAQNGTEEKLKARRIMERVRYLSKEVNLEGEGHHHHHH” here?
The value was “soluble”.

With “MKLIILEHYSQASEWAAKYIRNRIIQFNPGPEKYFTLGLPTGSTPLGCYKKLIEYYKNGDLSFKYVKTFNMDEYVGLPRDHPESYHSFMWNNFFKHIDIHPENTHILDGNAVDLQAECDAFEEKIKAAGGIELFVGGIGPDGHIAFNEPGSSLVSRTRVKTLAMDTILANARFFDGELTKVPTMALTVGVGTVMDAREVMILITGAHKAFALYKAIEEGVNHMWTVSAFQQHPRTVFVCDEDATLELKVKTVKYFKGLMLVHNKLVDPLYSIKEKETEKSQSSKKPYSD” as the sequence, how does the “soluble on expression in E. coli” value read?
The value was “soluble”.

For “MICWGEQKRQADPGFFCRKIVEGVSQPIWLVSDTRRTSDIQWFQEAYGAVIQTVRVVASEQSRQQRGWVFTPGVDDAESECGLDNFGNFDWVIENHGDEQCLEDQLEHLLGFIQAKL”, which “soluble on expression in E. coli” value is on record?
The value was “not soluble”.
